Each block holds one substance with its values, some of them ahead of it.
Experiments:
[1] = biological target: 1G4 TCRαβ with βA291 (αWT, β Y291A), β-HA and α-FLAG; settings: scale: nM
[2] = biological target: 1G4 TCRαβ wild type (HLA-A2-restricted TCR specific for NY-ESO-1 157-165), β-HA and α-FLAG; settings: scale: nM
[3] = biological target: 1G4 TCRαβ with βA291 (αWT, β Y291A), β-HA and α-FLAG; assay: co-IP; DDM stability assay (DSA): J76 cells lysed in 0.5% DDM, 150 mM NaCl, 20 mM Tris pH 8.0, 30 min on ice; post-nuclear lysate on anti-HA agarose beads (β-HA) 1 h at 4°C; quantitative immunoblot of β (HA), ε, γ, δ, ζ; ratios normalised to WT; also after A770041 treatment of the cells
[4] = biological target: QM-α TCRαβ (1G4 variant with mutations in αCDR2, βCDR2 and βCDR3), β-HA, in J76 cells; assay: pull-down; ζ recovered with ligand-engaged TCR: (9V-A2)4-His bound to intact cells (37°C or 0°C, ± A770041), 0.5% DDM lysis, capture on HisPur cobalt resin; ζ/β2 compared with non-stimulated anti-HA pull-down (= 1)
[5] = biological target: wtc51 TCRαβ (1G4 variant with four mutations in βCDR2), β-HA, in J76 cells; assay: as above
[6] = biological target: 1G4 TCRαβ wild type (HLA-A2-restricted TCR specific for NY-ESO-1 157-165), β-HA and α-FLAG; assay: co-IP; DDM stability assay (DSA): J76 cells lysed in 0.5% DDM, 150 mM NaCl, 20 mM Tris pH 8.0, 30 min on ice; post-nuclear lysate on anti-HA agarose beads (β-HA) 1 h at 4°C; quantitative immunoblot of β (HA), ε, γ, δ, ζ; ratios normalised to WT; also after A770041 treatment of the cells
[7] = biological target: wtc51 TCRαβ (1G4 variant with four mutations in βCDR2), β-HA, in J76 cells

pErk MFI (flow cytometry) of CD8- J76 cells against (6V-A2)4 nM, EC50 of the non-linear regression fit [1]: 19
pErk MFI (flow cytometry) of CD8- J76 cells against (6V-A2)4 nM, EC50 of the non-linear regression fit [2]: 19.5
Substance: 6V-HLA-A2 tetramer on phycoerythrin-conjugated streptavidin (from UniProt P61769 21-119) (peptide-MHC)

reduction of recovery against 1G4-WT [3]: 40%
Substance: CD3γ, endogenous in J76 Jurkat cells (from UniProt P09693 23-182) (natural protein)

reduction of recovery against 1G4-WT [3]: 10%
Substance: CD3δ, endogenous in J76 Jurkat cells (from UniProt P04234 22-171) (natural protein)

ε/βT ratio (1G4-WT = 1) (ratio to 1G4-WT) [3]: 0.5
Substance: CD3ε, endogenous in J76 Jurkat cells (from UniProt P07766 23-207) (natural protein)

reduction of the ζ/β2 ratio of liganded against unliganded TCR [4]: 40%
ζ/β2 ratio of liganded against unliganded TCR (= 1) (ratio to unliganded wtc51) [5]: 0.5
ζ/β2 ratio (1G4-WT = 1) (ratio to 1G4-WT) [3]: 0.2
Substance: CD3ζ (ζζ), endogenous in J76 Jurkat cells (from UniProt P20963-1 22-164) (natural protein)

ζ/β2 ratio (ζWT = 1) [6]: 0.05 ratio to ζWT
Substance: CD3ζ I38A expressed in J76-1G4WT-ζKO cells (from UniProt P20963-1 22-164) (natural protein)

ζ/β2 ratio (ζWT = 1) [6]: 0.25 ratio to ζWT
Substance: CD3ζ I41A expressed in J76-1G4WT-ζKO cells (from UniProt P20963-1 22-164) (natural protein)

pErk immunoblot of J76 wtc51 cells, dose response of sm-9V-A2 (Figure S7F) [7]: 0.003 µM
Substance: soluble monovalent 9V-HLA-A2 (biotinylated pMHC monomer) (from UniProt P61769 21-119) (peptide-MHC)
